Here are results for four molecules from patent US11447754B2, “In vitro methods of chemical conversion using non-stereospecific glutathione lyases” (WISCONSIN ALUMNI RESEARCH FOUNDATION, priority 2017, dated 2022).

A short description of data set [1]: Kinetics of the enzymatic cleavage of β(R)-MPHPV into GS-HPV. It is filed as biochemical. To be noted: β(R)-MPHPV. As to the method: (§1) Kinetics of the enzymatic cleavage of β(R)-MPHPV. Various concentrations of racemic MPHPV (equal amounts of the β(S)- and β(R)-stereoisomers) were combined with 5 mM GSH in RB. At time zero, 100 μL of a given enzyme in RB+5 mM GSH was combined with 1000 μL of the racemic MPHPV/GSH sample at 25° C. (both samples were equilibrated to 25° C. before mixing). Final concentrations of β(R)-MPHPV in each reaction were 0.0045, 0.010, 0.017, 0.068, or 0.13 mM. Final enzyme concentrations were 18 nM BaeA, 23 nM BaeA (2:S14A), 22 nM BaeA (3:S15A), 24 nM BaeA (2:S14A/3:S15A), 98 nM BaeA (3N14A), or 70 nM LigE (Saro_2405) (all concentrations are for the dimeric enzyme, except for LigE, which is the concentration of the monomer). At specified time points, 200 μL of a reaction was removed and combined with 40 μL of 1 M HCl (Acros Organics) to stop the reaction before HPLC analysis to quantify GS-HPV formed. Control experiments were allowed to proceed for several hours to ensure that only the β(R)-MPHPV in the reaction mixtures was being reacted with in these experiments.
(§2) HPLC analysis. Analysis and quantification of aromatic compounds were performed using an Ultra AQ C18 5 μm column (Restek) attached to a System Gold HPLC (Beckman Coulter) with running buffers and methods described in Example 1. The eluent was analyzed for light absorbance between 191 and 600 nm, and absorbances at 280 nm were used for quantification of aromatic metabolites by comparing peak areas to those of standards.

Substrate in data set [2]: COc1cc(C(=O)[C@@H](CO)Oc2ccccc2OC)ccc1O
Description: Kinetics of the enzymatic cleavage of β(R)-MPHPV by BaeA (2:S14A). Format: biochemical, Novosphingobium aromaticivorans. As to conditions: other: β(R)-MPHPV into GS-HPV, 23 nM dimeric enzyme, 5 mM GSH, pH 8.0, 25° C.
Text: To generate mutant 2:S14A, pVP302K/2873-H2872 was amplified by kinase phosphorylated primers “Saro2872-S14A_R” and “Saro2872-S14A_F”. To generate mutant 3:S15A, pVP302K/H2873-2872 was amplified by kinase phosphorylated primers “Saro2873-S15A_R” and “Saro2873-S15A_F”. To generate mutant 3:N14A, pVP302K/2873-H2872 was amplified by kinase phosphorylated primers “Saro2873-S15A_R” and “Saro2873-N14A_F”. These linear fragments were separately circularized using T4 DNA ligase to generate plasmids pVP302K/2873-H2872(S14A), pVP302K/H2873(S15A)-2872, and pVP302K/2873(N14A)-H2872, respectively.
(§3) Expression and purification of recombinant enzymes. Recombinant proteins were expressed using the plasmids described above in E. coli B834 containing plasmid pRARE2 (Novagen) grown for ˜25 hours at 25° C. in ZYM-5052 Autoinduction Medium containing kanamycin and chloramphenicol. Recombinant proteins were purified using a Ni^2+-NTA column as described in Example 1 above, except using gravity-flow columns instead of an FPLC system. After removal of His8-tags using Tev protease, recombinant proteins retained a Ser-Ala-Ile-Ala-Gly-peptide on their N-termini, derived from the linker between the protein and the Tev protease recognition site. Recombinant LigF1 was purified as previously described (Gall and Ralph et al. 2014).
Kinetics of the enzymatic cleavage of β(R)-MPHPV. Various concentrations of racemic MPHPV (equal amounts of the β(S)- and β(R)-stereoisomers) were combined with 5 mM GSH in RB. […] At specified time points, 200 μL of a reaction was removed and combined with 40 μL of 1 M HCl (Acros Organics) to stop the reaction before HPLC analysis to quantify GS-HPV formed. […]
as §2

Substrate in data set [3]: COc1cc(C(=O)[C@@H](CO)Oc2ccccc2OC)ccc1O
In words: Kinetics of the enzymatic cleavage of β(R)-MPHPV by BaeA. It is filed as biochemical, Novosphingobium aromaticivorans. As to conditions: other: β(R)-MPHPV into GS-HPV, 18 nM dimeric enzyme, 5 mM GSH, pH 8.0, 25° C. Here is the method: as §3
as §1, with “Control experiments were allowed to proceed for several hours to ensure that only the β(R)-MPHPV in the reaction mixtures was being reacted with in these experiments.” left out
as §2

Substrate in data set [4]: COc1cc(C(=O)[C@@H](CO)Oc2ccccc2OC)ccc1O
Description: Kinetics of the enzymatic cleavage of β(R)-MPHPV by LigE. As to conditions: other: β(R)-MPHPV into GS-HPV, 70 nM enzyme (monomer), 5 mM GSH, pH 8.0, 25° C. It is filed as biochemical, Novosphingobium aromaticivorans.
Text: Enzyme purifications. Genes Saro_2595, E. coli yghU, E. coli yfcG, and SLG_04120 from Sphingobium sp. SYK-6 (codon-optimized for expression in E. coli) were individually cloned into plasmid pVP302K (Gall and Ralph et al. 2014) so that transcripts from the plasmids would be translated into proteins containing a His8-tag connected to the N-terminus via a tobacco etch virus (TEV) protease recognition site. Recombinant proteins were expressed in E. coli B834 (Wood 1966, Doherty et al. 1995) containing plasmid pRARE2 (Novagen, Madison, Wis.) grown for ˜24 h at 27° C. in ZYM-5052 Autoinduction Medium (Studier 2005) containing kanamycin and chloramphenicol. Recombinant proteins were purified essentially as described previously (Gall and Kim et al. 2014); see below for modifications to the procedure. After removal of His8-tags using TEV protease, recombinant proteins retained a Ser-Ala-Ile-Ala-Gly-peptide on their N-termini, derived from the linker between the protein and the TEV protease recognition site. Recombinant LigE and LigF1 from N. aromaticivorans were purified as previously described (Gall and Ralph et al. 2014).
Kinetics of the enzymatic cleavage of β(R)-MPHPV. Various concentrations of racemic MPHPV (equal amounts of the β(S)- and β(R)-stereoisomers) were combined with 5 mM GSH in RB. At time zero, 100 μL of a given enzyme in RB+5 mM GSH was combined with 1000 μL of the racemic MPHPV/GSH sample at 25° C. (both samples were equilibrated to 25° C. before mixing). […] At specified time points, 200 μL of a reaction was removed and combined with 40 μL of 1 M HCl (Acros Organics) to stop the reaction before HPLC analysis to quantify GS-HPV formed. […]
as §2

B1: BaeA (3:N14A): BaeA variant with Asn14 of Saro_2873 mutated into Ala (protein)
chain: MDEVSLYHWEPNAASGKPMLALMEKGVPFSSHYIDMLQFDQHKPEYLAINPQGTIPAMTHNGQVLTESTAIMEYVNDRFDGPDLMPADAQDRWRVRWWMKFMDQWLGPSFSMIGWSVFVGPMVRQRDPAELAAAIDRIPLPERRTAWRKAINGDFSESEMAESRRRVGLGIAKLEEELGKRPYVGSNQYSLADINIFNSTYSLPISQPDLAGKDRTPNIMRWLKRVYTREAVKKTWAMGKTDLAHRYGLIMAEIEG
Regarding B1, in data set [1], the “KM, fold higher than wild-type BaeA” value is reported as around 12.5 fold and the “kcat, fold lower than (wild-type) BaeA” value is given as around 20 fold.

B2: Novosphingobium aromaticivorans BaeA (Saro_2872/Saro_2873 heterodimer, SEQ ID NO:40/SEQ ID NO:42) variant 2:S14A (Ser14 of Saro_2872 to Ala) (Novosphingobium … (protein)
chain 1: MSALLYHGEPNGAALTVLAALAETGLDIECRRIDLLAGERHSLPGIVDPVALDLSIEGEGPVLVIDGEAMTESVFLAQYLDEAAGGVGLQPTDAYARWEMMMWCRQITERLSPAAALLGNLATSQSAIAAIPAEDFAILAARIVSDDLRERWQALNDDAVNAAQVADSETKVAAAVDRCEKQLGDGREWLMGTFSIADLVTYSWLAGMEPLRPAAFADAPLVKAWLARTAARPCVQAALARATISEPLRAWAPGPEINRWG
chain 2: MDEVSLYHWEPNANSGKPMLALMEKGVPFSSHYIDMLQFDQHKPEYLAINPQGTIPAMTHNGQVLTESTAIMEYVNDRFDGPDLMPADAQDRWRVRWWMKFMDQWLGPSFSMIGWSVFVGPMVRQRDPAELAAAIDRIPLPERRTAWRKAINGDFSESEMAESRRRVGLGIAKLEEELGKRPYVGSNQYSLADINIFNSTYSLPISQPDLAGKDRTPNIMRWLKRVYTREAVKKTWAMGKTDLAHRYGLIMAEIEG
notes: His8 tag on Saro_2872 removed by TEV, SAIAG left on N-terminus
In general, Km refers to the substrate concentration at which the rate is half of its maximum. As a reminder, the kcat is the number of substrate molecules converted per active site and unit of time at saturation. In general, kcat/Km refers to the turnover number divided by the Michaelis constant. With B2, in data set [2], the Km was found to be 22 ± 3 µM, the catalytic constant (kcat) came to 2.8 ± 0.2 s⁻¹ and the kcat/Km stood at 130000 ± 20000 M⁻¹ s⁻¹.

B3: Novosphingobium aromaticivorans BaeA, wild type, heterodimer of Saro_2872 (SEQ ID NO:40) and Saro_2873 (SEQ ID NO:42) (Novosphingobium aromaticivorans DSM … (protein)
chain 1: MSALLYHGEPNGASLTVLAALAETGLDIECRRIDLLAGERHSLPGIVDPVALDLSIEGEGPVLVIDGEAMTESVFLAQYLDEAAGGVGLQPTDAYARWEMMMWCRQITERLSPAAALLGNLATSQSAIAAIPAEDFAILAARIVSDDLRERWQALNDDAVNAAQVADSETKVAAAVDRCEKQLGDGREWLMGTFSIADLVTYSWLAGMEPLRPAAFADAPLVKAWLARTAARPCVQAALARATISEPLRAWAPGPEINRWG
chain 2: MDEVSLYHWEPNANSGKPMLALMEKGVPFSSHYIDMLQFDQHKPEYLAINPQGTIPAMTHNGQVLTESTAIMEYVNDRFDGPDLMPADAQDRWRVRWWMKFMDQWLGPSFSMIGWSVFVGPMVRQRDPAELAAAIDRIPLPERRTAWRKAINGDFSESEMAESRRRVGLGIAKLEEELGKRPYVGSNQYSLADINIFNSTYSLPISQPDLAGKDRTPNIMRWLKRVYTREAVKKTWAMGKTDLAHRYGLIMAEIEG
notes: His8 tag removed by TEV, SAIAG left on the N-terminus
As for B3, in data set [3], the Km worked out at 20 ± 3 µM, the kcat is 2.9 ± 0.3 s⁻¹ and the kcat/Km was 150000 ± 30000 M⁻¹ s⁻¹.

B4: Novosphingobium aromaticivorans LigE (Saro_2405), wild type (Novosphingobium aromaticivorans DSM 12444) (protein)
chain: MAANNTITFYDLALSTGATISPFVWATKYALKHKGFDLDVVPGGFTGILERTGGKTERLPAIVDDGEFVLDSWGIVEYLDAKYPDRPVLIPHESVAATLKALDNWFWNAAVGPWMFCFCQDYRDLSLPQDHEYVTHSREKMLGRKLEEVQAGREERLPKISAALEPLRAALAQHQWLGGSSPNYADYRIMGGILFTASVCKTPVLANDDPLRDWIERCLDLYGGLGRHPGLFPLFGLEQREGDPDLFNRAAGQGGIYKRNTGPESTRAETQRITEGMKK
notes: E. coli expressed
Consider B4, for which, in data set [4], the Km was 7 ± 1 µM, the kcat came to 0.68 ± 0.06 s⁻¹ and the kcat/Km came to 100000 ± 20000 M⁻¹ s⁻¹.
